Laboratory results reported in IntAct's records for PubMed 36435842.

B1: Golgi phosphoprotein 3 homolog sauron (Drosophila melanogaster (Fruit fly)), Q9VQ93 (parent)
chain: MNRSDGLVRRSVKPRENGGAEGGLNANTPDDNQDALDNLKDQEDNIDDGDSKETRLTLMEEVLLLGLKDKEGYTSFWNDCISSGLRGCILIELGLRGRVMIEKSGMRRRGLCTRKLILKSDQQTGDVLLDEALKHIKETDPPETVQSWIEYLSGETWNPLKLRYQLKNVRERLAKNLVEKGVLTTEKQNFLLFDMTTHPLSDNVVKCRLVKKIQDSVLSKWVNDPQRMDKRMLALIFLAHASDVIENAFAPLNDDDYEVAMKRVRELLDLDFEAESAKPNANEILWAVFMAFTK
partner: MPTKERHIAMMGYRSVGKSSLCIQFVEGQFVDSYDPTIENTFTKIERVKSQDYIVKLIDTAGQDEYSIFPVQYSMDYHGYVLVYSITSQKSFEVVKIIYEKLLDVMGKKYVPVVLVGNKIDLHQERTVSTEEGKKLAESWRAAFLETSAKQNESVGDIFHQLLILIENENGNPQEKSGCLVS

Variants of: B1
Conditions: with rheb_drome Rheb

effect of a mutation on the interaction	Variant
disrupting interaction strength	K167A;R170L
